Assay results taken from patent US6566088.
Numbering of substitutions follows the chain as printed. In names and notes the source's numbering stands.

T1: Biotin-Acp-DLDLEALAPYIPADDDFQL, human HIF-1a ODD peptide, wild type, not hydroxylated
T1 chain: DLDLEALAPYIPADDDFQL

T2: Biotinylated human HIF-1a ODD peptide with Pro567 to Gly, not hydroxylated
T2 chain: DLDLEALAPYIGADDDFQL

T3: Biotinylated human HIF-1a ODD peptide with A563G, not hydroxylated
T3 chain: DLDLEALGPYIPADDDFQL

T4: Biotinylated human HIF-1a ODD peptide with L562A, not hydroxylated
T4 chain: DLDLEAAAPYIPADDDFQL

T5: Biotinylated human HIF-1a ODD peptide with Y565A, not hydroxylated
T5 chain: DLDLEALAPAIPADDDFQL

B1: human HPH 1 H196A with carboxy-terminal V5-HIS tag (protein)
chain: MPLGHIMRLDLEKIALEYIVPCLHEVGFCYLDNFLGEVVGDCVLERVKQLHCTGALRDGQLAGPRAGVSKRHLRGDQITWIGGNEEGCEAISFLLSLIDRLVLYCGSRLGKYYVKERSKAMVACYPGNGTGYVRHVDNPNGDGRCITCIYYLNKNWDAKLHGGILRIFPEGKSFIADVEPIFDRLLFFWSDRRNPAEVQPSYATRYAMTVWYFDAEERAEAKKKFRNLTRKTESALTED
B2: human HPH 1 H135A with carboxy-terminal V5-HIS tag (protein)
chain: B1 chain with H135A, A196H
B3: human HPH 1 D137A with carboxy-terminal V5-HIS tag (protein)
chain: B1 chain with D137A, A196H
B4: human HIF prolyl hydroxylase 1 (HPH 1) with carboxy-terminal V5-HIS tag (protein)
chain: B1 chain with A196H
B5: recombinant human HPH 2 with amino-terminal MBP, purified from E. coli (protein)
chain: ANDSGGPGGPSPSERDRQYCELCGKMENLLRCSRCRSSFYCCKEHQRQDWKKHKLVCQGSEGALGHGVGPHQHSGPAPPAAVPPPRAGAREPRKAAARRDNASGDAAKGKVKAKPPADPAAAASPCRAAAGGQGSAVAAEAEPGKEEPPARSSLFQEKANLYPPSNTPGDALSPGGGLRPNGQTKPLPALKLALEYIVPCMNKHGICVVDDFLGKETGQQIGDEVRALHDTGKFTDGQLVSQKSDSSKDIRGDKITWIEGKEPGCETIGLLMSSMDDLIRHCNGKLGSYKINGRTKAMVACYPGNGTGYVRHVDNPNGDGRCVTCIYYLNKDWDAKVSGGILRIFPEGKAQFADIEPKFDRLLFFWSDRRNPHEVQPAYATRYAITVWYFDADERARAKVKYLTGEKGVRVELNKPSDSVGKDVF
B6: human HPH 2 (splice variant) with carboxy-terminal V5-HIS tag, in vitro translated (protein)
chain: B5 chain

How the values were obtained:
[1] = molecular target: T1, Biotin-Acp-DLDLEALAPYIPADDDFQL, human …
[2] = molecular target: T2, Biotinylated human HIF-1a ODD peptide …
[3] = molecular target: T3, Biotinylated human HIF-1a ODD peptide …
[4] = molecular target: T4, Biotinylated human HIF-1a ODD peptide …
[5] = molecular target: T5, Biotinylated human HIF-1a ODD peptide …

Protein	prolyl hydroxylase activity [1]	prolyl hydroxylation of variant peptide substrates [2]	prolyl hydroxylase activity, [^35S]-pVHL pull-down assay [1]	prolyl hydroxylation of variant peptide substrates [3]	prolyl hydroxylation of variant peptide substrates [4]	prolyl hydroxylation of variant peptide substrates [5]
B1	Each of these mutations eliminated the prolyl hydroxylase activity of the native HPH 1 enzyme					
B2	Each of these mutations eliminated the prolyl hydroxylase activity of the native HPH 1 enzyme					
B3	Each of these mutations eliminated the prolyl hydroxylase activity of the native HPH 1 enzyme					
B4		a peptide containing a mutation of Pro^567 to glycine served as an equal, if not better, substrate for the human HPH enzymes	Of the five candidate enzymes assayed, only one, HPH-1, was able to enhance pVHL association with the biotinylated peptide	unable to modify peptides containing the L562A, A563G or Y565A mutations	unable to modify peptides containing the L562A, A563G or Y565A mutations	unable to modify peptides containing the L562A, A563G or Y565A mutations
B5	Purified HPH 2 was able to hydroxylate the HIF-1a peptide substrate	a peptide containing a mutation of Pro^567 to glycine served as an equal, if not better, substrate for the human HPH enzymes		unable to modify peptides containing the L562A, A563G or Y565A mutations	unable to modify peptides containing the L562A, A563G or Y565A mutations	unable to modify peptides containing the L562A, A563G or Y565A mutations
B6			both of these enzymes were observed to catalyze the hydroxylation of the key proline residue in the HIF-1a peptide substrate			
